These results are taken from patent publication US20210246217A1 (LEADARTIS S L, published 2021).

Experiment [1] addresses murine 4-1BB on the cell surface (mouse) (UniProt P20334). Put plainly: cell-based or functional assay.
Another experiment concerns the target T1, human CEA (hCEA) (human, UniProt P06731 35-685, limits assumed).
T1 construct: also called carcinoembryonic antigen
T1 sequence (looked up): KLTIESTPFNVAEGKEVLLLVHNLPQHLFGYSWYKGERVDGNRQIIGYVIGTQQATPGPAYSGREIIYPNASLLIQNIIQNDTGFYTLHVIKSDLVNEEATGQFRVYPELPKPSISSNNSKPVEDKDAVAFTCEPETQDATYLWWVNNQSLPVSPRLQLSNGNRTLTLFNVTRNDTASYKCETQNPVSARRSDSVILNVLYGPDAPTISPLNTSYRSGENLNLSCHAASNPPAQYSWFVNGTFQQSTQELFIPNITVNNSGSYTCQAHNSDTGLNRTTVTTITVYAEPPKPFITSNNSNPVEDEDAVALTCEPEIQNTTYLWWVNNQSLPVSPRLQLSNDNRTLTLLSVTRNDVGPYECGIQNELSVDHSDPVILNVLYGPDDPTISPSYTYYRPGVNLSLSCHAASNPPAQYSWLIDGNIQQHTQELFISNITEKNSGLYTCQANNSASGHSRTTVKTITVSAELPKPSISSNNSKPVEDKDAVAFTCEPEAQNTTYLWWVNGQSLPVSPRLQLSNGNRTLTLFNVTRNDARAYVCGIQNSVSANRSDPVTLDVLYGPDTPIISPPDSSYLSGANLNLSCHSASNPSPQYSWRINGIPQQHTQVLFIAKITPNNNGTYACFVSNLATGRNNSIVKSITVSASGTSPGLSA
Put plainly: BLI, m4-1BB-coated biosensors, hCEA in solution. How it is done:
FIG. 26. Functional characterization of purified 1D8^{N/C}CEA.1 trimerbody. Biolayer interferometry (BLI)-derived sensorgrams from the interactions between immobilized m4-1BB and 1D8^{N/C}CEA. 1 at 4 or 2 nM. Experimental responses are traced in black, and fitting curves are in gray (A). […] 1 bispecificity towards biosensors coated with m4-1BB and hCEA in solution (B and C). Following association with either 1D8^{N/C}CEA.1 or 1D8^N18 (sample indicated with arrows) or kinetics buffer only (sample indicated with arrows), biosensors were transferred into 50 nM of hCEA (black and red) or kinetics buffer only (blue and green).
The ability of 1D8^{N/C}CEA.1 to bind biosensor-immobilized m4-1BB and hCEA in solution at the same time was investigated using biolayer interferometry (BLI) on an Octet RED96 system (Fortebio, Menlo Park, Calif., USA). AR2G biosensors (Fortebio) were activated using s-NHS and EDC, and then coated with 10 μg/mL m4-1BB in 10 mM sodium acetate at pH 6 for 20 minutes, followed by quenching with ethanolamine. After 10 minutes of equilibration in kinetics buffer (PBS with 0.1% BSA and 0.05% Tween20), the coated biosensors were incubated in kinetics buffer containing 4 nM of 1D8^N18, 1D8^{N/C}CEA. 1, or only kinetics buffer for one hour. […]
In general terms: BLI is a label-free optical method that tracks binding on a fibre tip over time.

Experiment [2] addresses T2, recombinant mouse TNFSF9 (4-1BBL) (mouse, UniProt P41274 104-309, limits assumed).
T2 construct: It was detected through a tag in FACS and carried the CF488A label in RICS; also called m4-1BBL; recombinant soluble mouse 4-1BBL
T2 sequence (looked up): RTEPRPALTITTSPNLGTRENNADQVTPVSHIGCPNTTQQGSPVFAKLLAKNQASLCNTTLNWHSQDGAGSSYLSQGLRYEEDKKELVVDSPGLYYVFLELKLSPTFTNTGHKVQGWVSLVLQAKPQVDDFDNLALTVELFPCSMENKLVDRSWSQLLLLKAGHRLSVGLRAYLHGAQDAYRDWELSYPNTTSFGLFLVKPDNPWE
In words: competition ELISA on immobilized m4-1BB. How it is done: Both m4-1BB (3 μg/ml) or hEGFR (5 μg/ml) were immobilized on Maxisorp ELISA plates (NUNC Brand Products, Roskilde, Denmark) overnight at 4° C. After washing and blocking with 200 μl PBS-5% BSA, 100 μl of conditioned media or purified protein solution at 1 μg/ml were added and incubated for 1 hour at room temperature. The wells were washed for three times with PBS0.05% Tween-20, and 100 μl of anti-c-myc mAh or anti-FLAG mAh were added for 1 hour incubation at room temperature. The plate was washed as above described and 100 μl of HRP-conjugated goat anti-mouse IgG were added to each well. Afterwards, the plate was washed and developed using OPD (Sigma-Aldrich). For competition ELISA, m4-1BB (3 μg/ml) was immobilized overnight at 4° C. After washing and blocking, recombinant m4-1BBL was added at desired concentration to the wells for 1 hour. Afterwards, purified antibody solution was serially diluted in blocking buffer, added to the wells and incubated for 1 hour at room temperature. Following standard washing steps, anti-FLAG mAh solution was added for 1 hour. After washing HRP-conjugated goat anti-mouse IgG was added and developed using OPD.
Background: In an ELISA, binding on a coated surface is turned into a signal by an enzyme label.

In experiment [1], “rat IgG2a anti-mouse 4-1BB (clone 1D8) (antibody)” gave a lateral mobility at the plasma membrane (diffusion coefficient, RICS), before clustering of 1.5 µm^2/sec and a lateral mobility at the plasma membrane (diffusion coefficient, RICS), in clusters of 0.35 µm^2/sec.

B1: mouse 4-1BB:hFc chimera (m4-1BB) (Fc fusion, UniProt P20334 24-187, looked up)
chain: VQNSCDNCQPGTFCRKYNPVCKSCPPSTFSSIGGQPNCNICRVCAGYFRFKKFCSSTHNAECECIEGFHCLGPQCTRCEKDCRPGQELTKQGCKTCSLGTFNDQNGTGVCRPWTNCSLDGRSVLKTGTTEKDVVCGPPVVSFSPSTTISVTPEGGPGGHSLQVL
notes: Bought from R&D Systems; also called murine 4-1BB in fusion with human Fc; not shown: human Fc
Turning to B1, the results for the binding result (in the experiment with human CEA (hCEA); in experiment [2]) were “no binding (tested: 50 nM of hCEA)” and “binds”, respectively.
